# Experimental data taken from patent US7977459 (TOUDAI TLO, dated 2011).
# Several values for one entry are separate records, joined by “and”; a condition that tells them apart may be missing. Equal values may be shown once.
# T1: mouse AdipoR2 (mouse adiponectin receptor 2) (mouse, UniProt Q8BQS5 76-386)
# T1 construct: also called mAdipoR2
# T1 sequence: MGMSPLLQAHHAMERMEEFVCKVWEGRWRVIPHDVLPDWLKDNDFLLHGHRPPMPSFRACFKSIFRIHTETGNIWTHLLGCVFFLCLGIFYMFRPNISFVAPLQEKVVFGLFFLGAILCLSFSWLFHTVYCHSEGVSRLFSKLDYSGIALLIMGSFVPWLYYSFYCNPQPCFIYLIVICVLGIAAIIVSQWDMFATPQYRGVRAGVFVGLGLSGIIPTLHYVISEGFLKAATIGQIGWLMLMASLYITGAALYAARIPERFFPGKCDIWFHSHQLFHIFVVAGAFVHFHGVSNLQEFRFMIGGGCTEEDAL
# T2: mouse AdipoR1 (mouse adiponectin receptor 1) (mouse, UniProt Q91VH1 1-375)
# T2 construct: also called mAdipoR1
# T2 sequence: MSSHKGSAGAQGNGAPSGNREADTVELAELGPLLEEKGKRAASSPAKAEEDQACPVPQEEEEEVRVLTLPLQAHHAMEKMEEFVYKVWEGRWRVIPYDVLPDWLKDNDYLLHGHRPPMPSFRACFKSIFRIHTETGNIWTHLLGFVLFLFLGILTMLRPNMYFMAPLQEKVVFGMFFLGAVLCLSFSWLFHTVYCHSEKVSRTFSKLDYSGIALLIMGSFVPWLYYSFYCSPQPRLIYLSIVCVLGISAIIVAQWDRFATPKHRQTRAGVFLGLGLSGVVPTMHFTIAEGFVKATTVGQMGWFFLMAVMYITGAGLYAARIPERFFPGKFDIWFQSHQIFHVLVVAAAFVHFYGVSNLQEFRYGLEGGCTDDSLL
# B1: adiponectin consisting solely of the globular domain (globular Adipo) (ligand, mouse, UniProt Q60994 104-247, looked up)
# chain: KGEPGEAAYVYRSAFSVGLETRVTVPNVPIRFTKIFYNQQNHYDGSTGKFYCNIPGLYYFSYHITVYMKDVKVSLFKKDKAVLFTYDQYQEKNVDQASGSVLLHLEVGDQVWLQVYGDGDHNGLYADNVNDSTFTGFLLYHDTN
# modifications: 125I-labeled at Tyr in the radioligand binding assay; biotinylated with NHS-LC-Biotin or conjugated with FITC in the FACS experiments
# notes: domain: globular domain; also called gAd; globular adiponectin
# B2: full-length adiponectin (full-length Adipo) (ligand, mouse, UniProt Q60994 18-247, looked up)
# chain: EDDVTTTEELAPALVPPPKGTCAGWMAGIPGHPGHNGTPGRDGRDGTPGEKGEKGDAGLLGPKGETGDVGMTGAEGPRGFPGTPGRKGEPGEAAYVYRSAFSVGLETRVTVPNVPIRFTKIFYNQQNHYDGSTGKFYCNIPGLYYFSYHITVYMKDVKVSLFKKDKAVLFTYDQYQEKNVDQASGSVLLHLEVGDQVWLQVYGDGDHNGLYADNVNDSTFTGFLLYHDTN
# modifications: 125I-labeled at Tyr in the radioligand binding assay
# notes: also called [125I] full-length Adipo
# Columns and labels:
# [1] = biological target: T1, mouse AdipoR2 (mouse adiponectin …); experiment: Scatchard analysis of [125I] gAd binding to C2C12 myocytes; intermediate affinity sites, tied to AdipoR2 because AdipoR2 siRNA abrogated them
# [2] = biological target: T2, mouse AdipoR1 (mouse adiponectin …); experiment: Scatchard analysis of [125I] gAd binding to C2C12 myocytes; high affinity sites, tied to AdipoR1 because AdipoR1 siRNA abrogated them
# [3] = biological target: T1, mouse AdipoR2 (mouse adiponectin …); experiment: Scatchard analysis of [125I] Ad binding to C2C12 myocytes; intermediate affinity sites, tied to AdipoR2 because AdipoR2 siRNA abrogated them
Binder,Kd [1],Kd [2],Kd [3]
B1,~0.8 µg/mL and ~14.4 nM,~0.06 µg/mL and ~1.14 nM,
B2,,,~6.7 µg/mL and ~49.1 nM
